The nanobody polyreactivity screen of Harvey et al. (2022)

Assay: yeast display, Sf9 membrane polyspecificity reagent, FACS + sequencing; frameworks hold sequencing errors
In short: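 A synthetic nanobody library was expressed on Saccharomyces cerevisiae BJ5465 by galactose induction for 36–48 hours. The library was stained for 1 hour at 4 °C with 10% biotinylated, detergent-solubilized Sf9 membrane reagent and enriched with streptavidin microbeads before FACS. Low and high (top ~1%) gates were set on anti-HA fluorescence for expression and streptavidin fluorescence for reagent binding, and each polyreactivity label reflects the gate of origin.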

Sequence	polyreactivity (PSR sort gate)
QVQLVESGGGLVQAGGSLRLSCAASGSTFRINAMGWYRLAPGKEREFVAAIRWNGGSTNYADSVKGRFTISRDNAKNTVYVQMNSLKPEDTAVYYCAADGYIGWRHIYEYWGQGTQVTVSS	low polyreactivity
QVQLVESGGGLVQAGGSLRLSCAASGSTFRIYAMGWYRQAPGKERELVAAITSGGDTNYADSVKGRFTISRDNANNTVYLQMKSLKPEDTSVYYCAADGHSVYTELDYWGQGTQVTVSS	low polyreactivity
QVQLVESGGGLVQAGGSLRLSCAASGSTFRIYAMGWYRQAPGKERELVAGITRRGGSTFYADSVKGRFTISRDNAKNTVYLQMNSLKPEDTAVYYCAARFRGGMDYWGQGTQVTVSS	high polyreactivity
QVQLVESGGGLVQAGGSLRLSCAASGSTFRLYAIGWYRQAPWKERELDAAISSGGTTKYADSVKGRFTISRDNAKKTVYLQMNRLKPEDTAVYYCNAVYHWGNPGEYATLPRYDYWGQGTQVTVSS	high polyreactivity
QVQLVESGGGLVQAGGSLRLSCAASGSTFRLYAMGWYRQAPGKEREFVAAISFRGGSTYYADSVKGRFTISRDNAKNTVYLQMNSLKPEDTAVYYCNARVRVRLGRNWSSYYYWGQGTQVTVSS	high polyreactivity
QVQLVESGGGLVQAGGSLRLSCAASGSTFRNYAMGWYRQAPGKERELVAAISGSGGRTNYADSVKGRFTISRDNAKNTVYLQMNSLKPEDTAVYYCNARFPDWALSEISHSTTYGYWGQGTQVTVSS	low polyreactivity
QVQLVESGGGLVQAGGSLRLSCAASGSTFRPYGMGWYRQAPGKERELVAAINSGDSTYYADSVKGRFTISRDNAKNTFYLQMNSLKPEDTAVYYCNADVWWDTWFLDGYDYWGQGTQVTVSS	high polyreactivity
QVQLVESGGGLVQAGGSLRLSCAASGSTFRQNTMGWYRQAPGKEREFVAAINYSGGSTNYADSVKGRFTISRDNAKNTVYLQMNSLKPEDTAVYYCAVRQYYYKRMGYWGQGTQVTVSS	high polyreactivity
QVQLVESGGGLVQAGGSLRLSCAASGSTFRQYAMGWYRQAPGKERELVAAISSSGSTTYYADSVKGRFTISRDNAKNTVDVQMNSRKPEDTAVYYCAATYGFYYFPYDYWGQGTQVTVSS	low polyreactivity
QVQLVESGGGLVQAGGSLRLSCAASGSTFRQYAMGWYRQAPGKERELVAAITWRGDNTYYADSVKGRFTISRDNAKNTVYLQMNSLKPEDTAVYYCAARWSYRLYWGYGYWGQGTQVTVSS	low polyreactivity
QVQLVESGGGLVQAGGSLRLSCAASGSTFRQYPMGWYRQAPGKEREMVAAITWRGDNTYYADSVKGRFTISRDNAKKTVYLQMNSLKPEDTAVYYCAARWSYRLYWGYGYWGQGTQVTVSS	low polyreactivity
QVQLVESGGGLVQAGGSLRLSCAASGSTFRRNAMGWDRQAPGKERELVATISPGARTNYADSVKGRFTISRDNAKNTVYLQMNSLKPEDTAVYYCNAEYTLLYPLYDYWGQGTQVTVSS	low polyreactivity
QVQLVESGGGLVQAGGSLRLSCAASGSTFRRNAMGWYRPAPGKERELVAAITSTDSTYYADSVKGRFTISRDNAKNTVYLQMNSLKPEDTAVYYCAKGYWWGGQMGYWGQGTQVTVSS	low polyreactivity
QVQLVESGGGLVQAGGSLRLSCAASGSTFRRNAMGWYRQAPGKERELVAAISAGGGSTYYADSVKGRFTISRDNAKNTVYLQMNSLKPEDTAVYYCNVAGSGVRRMGYWGQGTQVTVSS	high polyreactivity
QVQLVESGGGLVQAGGSLRLSCAASGSTFRRNAMGWYRQAPGKERELVASISFSGGSTFYADSVKGRFTISRDNAKNTVYLQMNSLKPEDTAVYYCATRYYYSSYEYWGQGTQVTVSS	high polyreactivity
QVQLVESGGGLVQAGGSLRLSCAASGSTFRRNVMGWYRQAPGKERELVAAISRSGGRTYYADSVKGRFTISRDNAKNTVYLQMNSLKPEDTAVYYCNATRAGENPDGGDEYWGQGTQVTVSS	high polyreactivity
QVQLVESGGGLVQAGGSLRLSCAASGSTFRRYAMGWYRQAPGKERELVAAISSNGGSTYYADSVKGRFTISRDNAKNTVYLQMNSLKPEDTAVYYCAAYRSLDFDYWGQGTQVTVSS	high polyreactivity
QVQLVESGGGLVQAGGSLRLSCAASGSTFRRYAMGWYRQAPGKERELVAAITGSGGRTYYADSVKGRFTISRDNAKNTVYLQMNSLIPVDTAVYYCAKEGTFTKGVRLFDYWGQGTQVTVSS	high polyreactivity
QVQLVESGGGLVQAGGSLRLSCAASGSTFRRYAMGWYRQAPGKERELVATITSGGRTNYADSVKGRFTISRDNAKNTVYLQMNSLKPEDTAVYYCADRPYFYERSAGYYWGQGTQVTVSS	high polyreactivity
QVQLVESGGGLVQAGGSLRLSCAASGSTFRRYTMGWYRQAPGKERELVAAISRSAGSTSYADSVKGRFTISRDNAKNTVYLQMNSLKPEDTAVYYCNARVPLRQYSNYYWGQGTQVTVSS	high polyreactivity
QVQLVESGGGLVQAGGSLRLSCAASGSTFRSNAMGWYRQAPGKERELVAVISTRGGRTYYADSVKGRFTISRDNAKNTVYLQMNSLKPEDTAVYYCNTQISGSPYPYYYWGQGTQVTVSS	high polyreactivity
QVQLVESGGGLVQAGGSLRLSCAASGSTFRSNAMGWYRQAPGKERVLVAAISRSGGSTYYADSVKGRFTISRDNAKNSVYLQMNSLKPEDTAVYYCAGRYSRDPRTGDYGYCGQGTQVTVSS	low polyreactivity

Sequence	polyreactivity (PSR sort gate)
QVQLVESGGGLVQAGGSLRLSCAASGSTFRSYAMGWYRQAHGKERELVAAITSGGSTYYADSVKGRFTISRDNAKNTVYLQMNSLKPEDTAVYYCNARRRTRNVPGKRLRGGIYVYWGQGTQVTVSS	high polyreactivity
QVQLVESGGGLVQAGGSLRLSCAASGSTFRSYAMGWYRQAPGKEWELVAAISGDGSTNYADSVKGRFTISRDNAKNTVYLQMNSLKPEDTAVSYCAKDPGYPAPYYDYYYWGQGTQVTVSS	low polyreactivity
QVQLVESGGGLVQAGGSLRLSCAASGSTFRTNAMGWYRQAPGKERELVAGITSGTSTNYADSVKGRFTISRDNAKNTVYLQMNSLKPEDTAVYYCNTDRIWYGPEYDYWGQGTQVTVSS	low polyreactivity
QVQLVESGGGLVQAGGSLRLSCAASGSTFRTYAMGWYRQAPGTEREFVAVISASGGSTYYADSVKGRFTISRDNAKNTVYLQMNSQKPEDTAVYYCNAGRPRFYRSRWYYYGYGYWGQGTQVTVSS	high polyreactivity
QVQLVESGGGLVQAGGSLRLSCAASGSTFRVNAMGWYRQAPGKERELVAAISGSGSGTYYADSVKGRFTISRDNAKNTVYLQMNSLKPEDTAVYYCAKVPKSRGYVGGMDYWGQGTQVTVSS	low polyreactivity
QVQLVESGGGLVQAGGSLRLSCAASGSTFRVNGMGWYRQAPGKERELVAVISWSGGSTYYADSVKGRFTISRDNAKNSVYLQMNSLKPEDTAVYYCAAKVKAGAGYHYDYYWGQGTQVTVSS	high polyreactivity
QVQLVESGGGLVQAGGSLRLSCAASGSTFRVNVMGWYRQATGKERELVAAITTSGGSTYYADSVKGRFSISRDNAQNTVYFQMNSLKPEDTAVYYCNTTYPSGWGPDMDYWGQGTQVTVSS	low polyreactivity
QVQLVESGGGLVQAGGSLRLSCAASGSTFRVYAMGGDRQAPGKERELVAAITYSGGSTYYADSVKGRFTISRDNAKNTVYLQMNSLKPVDTAVYYCAADGYYGGYNYWGQGTQVTVSS	low polyreactivity
QVQLVESGGGLVQAGGSLRLSCAASGSTFRVYAMGWYRQAPGKESELVATISWGGGRTYYADSVKGRFTISRDNAKNTVYLLMNSLKPEDTAVYYCAADQRWTTDQPTAGDYWGQGTQVTVSS	low polyreactivity
QVQLVESGGGLVQAGGSLRLSCAASGSTFRVYAMGWYRQAPRKERELVAAISKSGVSTYYADSVKGRFTISRDNAMNTVYLQMNSLKPEDTAVYYCPVFLGYSRKYDYWGQGTQVTVSS	high polyreactivity
QVQLVESGGGLVQAGGSLRLSCAASGSTFRWYAMGWYRQAPGTERELVAAISVSTGSTYYADSVKGRFTISRDNAKNTVYVQMNTLKPEDTGVYYCNKVYGWRQFDYWGQGTQVTVSS	high polyreactivity
QVQLVESGGGLVQAGGSLRLSCAASGSTFRWYTMGWYRQAPGKERELVATISSSTDITYYADSVKGRFTISRDNAKNTVYLQMNSLKPEDTAVYYCAARRVYHYRYYYWGQGTQVTVSS	high polyreactivity
QVQLVESGGGLVQAGGSLRLSCAASGSTFRYNAMGWYRQAPGKERELVAAITSGGTTNYADSVKGRFTISRDNAMNTVYLQMNILKPEDTAVYYCGKRGYYWTNLLYFLGYDYWGQGTQVTVSS	low polyreactivity
QVQLVESGGGLVQAGGSLRLSCAASGSTFRYNDMGWYIQAPGKERELVDAITRSDSTNYADSVKGRFTISRDNAKNTVYLQMNSLKPEDTAVYYCAARRHYTYGNGPSRGGQMDYWGQGTQVTVSS	high polyreactivity
QVQLVESGGGLVQAGGSLRLSCAASGSTFRYNTMGWYRQAPGKEMELVARITSVGSTNYADSVKGRFTISRDNAKNTVYFQMNSLKPEDTAVYYCATTRPIRRTSARYNYWGQGTQVTVSS	low polyreactivity
QVQLVESGGGLVQAGGSLRLSCAASGSTFRYNTMGWYRQAPGKERELVAAINISSSSTYYADSVKGRFTISRDNAKNTVYLQMNSLKPEDTAVYYCAKRDYVPIATDENDDYWGQGTQVTVSS	low polyreactivity
QVQLVESGGGLVQAGGSLRLSCAASGSTFRYYAMGWSRQAPGKERELVAAISRSGTSTYYADSVKGRFTISRDNAKNTVYLQMNSLKPEDTAVYYCAADWHSKIGKGYDYWGQGTQVTVSS	high polyreactivity
QVQLVESGGGLVQAGGSLRLSCAASGSTFRYYAMGWYRLAPGKERELVAAITASGTSTYYADSVKGRFTISRDNAKNTVYLQMNSLKPEDTAVYYCAARWRYGYYWGQGTQVTVSS	high polyreactivity
QVQLVESGGGLVQAGGSLRLSCAASGSTFRYYAMGWYRQAPGKERELVAAIDRSGGNTYYADSVKGRFTISRDNAKNTVYLQMYSLKPEDTAVYYCNTASWRAQYYYWGQGTQVTVSS	high polyreactivity
QVQLVESGGGLVQAGGSLRLSCAASGSTFRYYAMGWYRQAPGKERELVAAIRSGGGTYYADSVKGRFTISRDNAKTTVYLQMNSLKPEDTAVYYCAARSYSRRVSYYYWGQGTQVTVSS	high polyreactivity
QVQLVESGGGLVQAGGSLRLSCAASGSTFRYYAMGWYRQAPGKERELVAAISARGTSTYYADSVKGRFTISRDNAKNTVYLQMNSLKPEDTAVYYCNDYLHATEYDYWGQGTQVTVSS	high polyreactivity
